Assay results as given in publication PMC5538626, “Structural and functional analysis of the GABARAP interaction motif (GIM)” (EMBO Reports, 2017).

Molecular target: LC3B (for ITC and NMR) (human), Q9GZQ8
Experiment: ITC; peptide 0.4 mM titrated into 0.020 mM LC3/GABARAP protein in 26 steps, 25°C; 50 mM Na2HPO4, 100 mM NaCl, pH 7.0; one-site model

Row | Ka [M⁻¹] | Kd [µM] | dH [kcal/mol] | Binder
1 | 10000 | > 100 | -1.7 | PQQEDEWGNVQYPD (modifications not checked) [PLEKHM1‐LIR V636G peptide (ITC), Q9Y4G2 629-642]
2 | 10000 | > 100 | -0.8 | PQQEDEAVNVQYPD (modifications not checked) [PLEKHM1‐LIR W635A peptide (ITC), Q9Y4G2 629-642]
